This is an account of results in patent US20210163581A1 (ALAMAB THERAPEUTICS, published 2021).

As usually defined, the Kd is the free concentration of one partner at which half of the binding sites on the other are occupied at equilibrium, for simple one-to-one binding. High values mean a looser complex, low ones a tighter complex. As usually defined, the koff is the rate constant with which the complex falls apart. A high value points to fast dissociation. The kon is the second-order rate constant of association. A higher kon goes with faster complex formation.

The target in one test is T1, human FcRn (human, UniProt P55899 24-297; P61769 21-119).
T1 construct: The b2m chain is my addition
T1 sequence (P55899 24-297 limits assumed, chain 1 of 2): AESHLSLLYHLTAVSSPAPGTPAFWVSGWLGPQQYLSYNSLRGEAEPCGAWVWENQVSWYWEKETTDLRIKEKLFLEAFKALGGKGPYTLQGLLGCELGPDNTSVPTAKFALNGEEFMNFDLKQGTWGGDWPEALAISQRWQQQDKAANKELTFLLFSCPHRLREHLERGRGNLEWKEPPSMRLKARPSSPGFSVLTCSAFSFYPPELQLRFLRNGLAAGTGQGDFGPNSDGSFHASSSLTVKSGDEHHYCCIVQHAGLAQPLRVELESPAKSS
T1 sequence (P61769 21-119 limits assumed, chain 2 of 2): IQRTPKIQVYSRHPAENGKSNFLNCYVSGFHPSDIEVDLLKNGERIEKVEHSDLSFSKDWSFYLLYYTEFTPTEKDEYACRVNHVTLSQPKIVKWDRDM
Briefly: SPR Biacore 8K, antibody amine-coupled to CM5, FcRn as analyte, pH 6.0, steady state affinity fit. As for the experimental part:
The activator was prepared by mixing 400 mM EDC and 100 mM NHS (GE) immediately prior to injection. The CM5 sensor chip was activated for 420 s with the mixture at a flow rate of 10 μL/min. 5 μg/mL of antibodies in 10 mM NaAc (pH 5.5) were then injected to Fc2 of channel 1-8 respectively at a flow rate of 10 μL/min for 60 s. The relative Fc1 was blocked. The chip w as deactivated by 1 M ethanolamine-HCl (GE) at a flow rate of 10 μL/min for 420 s.
Analyte FcRn was injected to channel 1-8 respectively. 8 concentrations of FcRn (0, 93.75, 187.5, 375, 750, 1500, 3000 and 6000 nM) were monitored at a flow rate of 30 μL/min for an association phase of 60 s, followed by 90 s dissociation. After each cycle of interaction analysis, the sensor chip surface was regenerated with 1×PBS (pH 7.4) at a flow rate of 10 μL/min for 30 s.
Surface channels Fc1 without immobilized antibodies were used as control surface for reference subtraction. Final data of each interaction was deducted from reference channel and buffer channel data.
In general terms: In SPR one partner is held on a chip, and binding of the other changes the refractive index at the surface.

The target of test [1] is T2, CD64 (UniProt P12314 16-288).
T2 construct: also called FCRI
T2 sequence (P12314 16-288 limits assumed): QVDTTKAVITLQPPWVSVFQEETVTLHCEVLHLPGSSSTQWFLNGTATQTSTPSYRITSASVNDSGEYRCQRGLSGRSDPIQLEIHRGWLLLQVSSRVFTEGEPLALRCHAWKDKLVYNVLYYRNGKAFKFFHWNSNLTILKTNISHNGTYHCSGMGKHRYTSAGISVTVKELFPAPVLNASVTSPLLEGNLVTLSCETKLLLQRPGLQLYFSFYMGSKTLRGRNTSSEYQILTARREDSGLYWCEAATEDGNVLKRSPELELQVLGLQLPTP
Description: SPR Biacore 8K, CD64 captured by anti-His antibody, antibody as analyte, 1:1 binding fit. The method, then:
2 μg/mL CD64 in running buffer (1×HBS-EP+) was injected to Fc2 of channel 1-4 at a flow rate of 10 μL/min for 30 s. 6 concentrations (40, 20, 10, 5, 2.5 and 1.25 nM) of analyte 20170905-Ab #C-02, 20170905-Ab #D-02, 20170908-Ab #G-02, 20170920-Ab #H-02 and running buffer were injected orderly to Fc1-Fc2 of channel 1-4 at a flow rate of 30 μL/min for an association phase of 180, followed by 400 dissociation. Repeat 6 cycles of capturing ligand and running analyte according to analyte concentrations in ascending order. 10 mM glycine pH 1.5 as regeneration buffer was injected following every dissociation phase.
(§1) Surface channels Fc1 without capturing ligand was used as control surface for reference subtraction. Final data of each interaction w as deducted from reference channel and buffer channel data. The experimental data of 20170905-Ab #C-02, 20170905-Ab #D-02, 20170908-Ab #G-02, 20170920-Ab #H-02 binding to CD64 was fitted by 1:1 binding mode. The 10240 nM curves of analyte 20170907-Ab #K-02, 20170908-Ab #L-02, 20170915-Ab #O-02, 20170919-Ab #P-02, 20170919-Ab #S-02 and 20170920-Ab #T-02 were removed to allow a better fit.

In test [2] the target is T3, Cx43 (peptide used in the Biacore affinity assay of Example 1).
T3 construct: also called connexin 43; PEP1 (914)
Description: SPR Biacore T200, antibody and Cx43 peptide; format and peptide not given.

Test [3] addresses T4, C1q (UniProt P02745 23-245; P02746 28-253; P02747 29-245).
T4 construct: also called Clq
Briefly: ELISA, antibody coated at 3 µg/mL, C1q titrated. The method, then: (§2) Plates (Nunc) were coated with antibodies at 3 μg/mL overnight at 4° C. After blocking and washing, Clq was half-log titrated in blocking buffer (600, 189.75, 60.01, 18.98, 6.00, 1.90, 0.60, 0.19, 0.06 and 0.02 μg/mL) and incubated at room temperature for 2 h. The plates were then washed and subsequently incubated with secondary antibody Sheep anti-human Clq Ab-HRP for 1 h. After washing, TMB substrate was added and the interaction was stopped by 2M HCl.
Background: In an ELISA, binding on a coated surface is turned into a signal by an enzyme label.

For a further test, the target named is T5, FcγRIIa (UniProt P12318 36-218, limits assumed).
T5 construct: also called FCRIIa
T5 sequence (looked up): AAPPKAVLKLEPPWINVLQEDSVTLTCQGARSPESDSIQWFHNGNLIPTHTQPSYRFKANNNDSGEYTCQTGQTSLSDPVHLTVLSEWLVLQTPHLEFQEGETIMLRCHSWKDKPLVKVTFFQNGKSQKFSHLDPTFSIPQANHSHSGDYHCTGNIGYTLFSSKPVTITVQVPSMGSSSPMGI
Briefly: SPR Biacore 8K, receptor captured by anti-His antibody, antibody as analyte, steady state affinity fit; unit inferred. The method, then: 1 μg/mL FcγRIIa, FcγRIIb, FcγRIIIa, or FcγRIIIb in running buffer (1×HBS-EP+) was injected to Fc2 of channel 1-8 at a flow rate of 10 μL/min for 15 s. Analytes were injected to channel 1-8 respectively. A series of analyte concentrations (seeing Table 3 below) were monitored at a flow rate of 30 μL/min for an association phase of 60 s, followed by 90 s dissociation. 10 mM glycine pH 1.5 as regeneration buffer was injected following every dissociation phase.
Surface channels Fc1 without capturing ligand was used as control surface for reference subtraction. Final data of each interaction was deducted from reference channel and buffer channel data. The experimental data of antibodies binding to FcγRIIa, FcγRIIb, FcγRIIIa, and FcγRIIIb was fitted by steady state affinity mode and shown in Table 4 below.

The target of test [4] is T4, C1q. Description: ELISA, antibody coated at 3 µg/mL, C1q titrated, anti-human C1q-HRP detection. The method, then:
as §2

Test [5] concerns the target T2, CD64. Description: SPR Biacore 8K, CD64 captured by anti-His antibody, antibody as analyte, steady state affinity fit. As for the experimental part: (§3) 2 μg/mL CD64 in running buffer (1×HBS-EP+) was injected to Fc2 of channel 1-6 at a flow rate of 10 μL/min for 30 s. […] Repeat 8 cycles of capturing ligand and running analyte according to analyte concentrations in ascending order. 10 mM glycine pH 1.5 as regeneration buffer was injected following every dissociation phase.
as §1

The target in test [6] is T2, CD64. Briefly: SPR Biacore 8K, CD64 captured by anti-His antibody, antibody as analyte, steady state affinity fit; steady state affinity fit; no ka/kd. The method, then:
as §3, §1

T4 sequence (P02745 23-245, chain 1 of 3): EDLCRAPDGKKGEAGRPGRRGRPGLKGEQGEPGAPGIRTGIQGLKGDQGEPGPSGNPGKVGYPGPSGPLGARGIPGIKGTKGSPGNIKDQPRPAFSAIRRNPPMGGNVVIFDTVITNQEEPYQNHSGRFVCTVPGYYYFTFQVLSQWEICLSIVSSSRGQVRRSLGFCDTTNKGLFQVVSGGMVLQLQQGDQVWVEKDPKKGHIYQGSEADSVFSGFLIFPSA
T4 sequence (P02746 28-253, chain 2 of 3): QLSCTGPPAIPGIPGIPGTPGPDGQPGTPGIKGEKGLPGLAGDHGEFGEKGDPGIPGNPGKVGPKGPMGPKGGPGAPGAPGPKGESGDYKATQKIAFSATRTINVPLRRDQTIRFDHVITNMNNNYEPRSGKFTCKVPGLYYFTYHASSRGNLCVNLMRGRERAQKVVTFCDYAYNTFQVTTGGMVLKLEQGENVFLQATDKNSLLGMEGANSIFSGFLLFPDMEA
T4 sequence (P02747 29-245, chain 3 of 3): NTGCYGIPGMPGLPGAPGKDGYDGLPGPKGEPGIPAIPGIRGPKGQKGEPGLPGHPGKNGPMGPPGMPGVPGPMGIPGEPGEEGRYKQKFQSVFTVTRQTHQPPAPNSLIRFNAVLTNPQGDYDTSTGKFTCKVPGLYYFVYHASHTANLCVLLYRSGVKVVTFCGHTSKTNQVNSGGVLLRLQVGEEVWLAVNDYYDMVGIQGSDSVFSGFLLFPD

B1: Ab#H (antibody, human IgG4 S228P, kappa)
heavy: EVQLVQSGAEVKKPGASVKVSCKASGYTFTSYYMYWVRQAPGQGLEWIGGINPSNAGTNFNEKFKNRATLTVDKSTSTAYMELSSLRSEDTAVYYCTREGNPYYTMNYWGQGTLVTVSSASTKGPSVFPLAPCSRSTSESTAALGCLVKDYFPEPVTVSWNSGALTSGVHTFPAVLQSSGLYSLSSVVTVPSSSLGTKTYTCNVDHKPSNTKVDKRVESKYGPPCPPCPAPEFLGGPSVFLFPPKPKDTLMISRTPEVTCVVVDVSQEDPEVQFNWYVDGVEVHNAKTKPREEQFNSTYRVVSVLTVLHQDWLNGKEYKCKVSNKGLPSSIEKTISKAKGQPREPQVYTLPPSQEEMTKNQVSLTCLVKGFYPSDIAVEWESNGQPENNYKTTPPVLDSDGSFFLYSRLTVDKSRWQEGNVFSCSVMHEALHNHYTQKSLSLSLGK
light: DVVMTQSPLSLPVTIGQPASISCKSSQSLLESDGKTYLNWLQQRPGQSPRRLIYLVSKLDSGVPDRFSGSGSGTDFTLKISRVEAEDVGVYYCWQGTHFPWTFGGGTKVEIKRTVAAPSVFIFPPSDEQLKSGTASVVCLLNNFYPREAKVQWKVDNALQSGNSQESVTEQDSKDSTYSLSSTLTLSKADYEKHKVYACEVTHQGLSSPVTKSFNRGEC
notes: also called 20170920-Ab #H-02; Mab H
Consider B1, for which the Kd with human FcRn was 2610 nM. In the test with CD64 [1], this molecule showed a Kd of 5.73 nM, a koff of 0.00318 s⁻¹ and a kon of 554000 M⁻¹ s⁻¹. This molecule also had a Kd in test [2] of 46.5 nM. Also, the binding result in the test with C1q [3] is “no binding”.

B2: Ab#D (antibody, human IgG1, kappa)
heavy: not shown
light: B1 light
notes: Light chain tie is indirect; also called 20170905-Ab #D-02
In the case of B2, the Kd is 2250 nM with human FcRn; 1.92 nM in the test with CD64 [1]; 3.39 µM with FcγRIIa; 198 nM in test [2]; 75 nM with C1q [4]. The molecule further returned an off-rate (koff) with CD64 [1] of 0.000925 s⁻¹. Further, the kon in the test with CD64 [1] was 482000 M⁻¹ s⁻¹.

B3: Ab#P (antibody, human IgG4 S228P, kappa)
heavy: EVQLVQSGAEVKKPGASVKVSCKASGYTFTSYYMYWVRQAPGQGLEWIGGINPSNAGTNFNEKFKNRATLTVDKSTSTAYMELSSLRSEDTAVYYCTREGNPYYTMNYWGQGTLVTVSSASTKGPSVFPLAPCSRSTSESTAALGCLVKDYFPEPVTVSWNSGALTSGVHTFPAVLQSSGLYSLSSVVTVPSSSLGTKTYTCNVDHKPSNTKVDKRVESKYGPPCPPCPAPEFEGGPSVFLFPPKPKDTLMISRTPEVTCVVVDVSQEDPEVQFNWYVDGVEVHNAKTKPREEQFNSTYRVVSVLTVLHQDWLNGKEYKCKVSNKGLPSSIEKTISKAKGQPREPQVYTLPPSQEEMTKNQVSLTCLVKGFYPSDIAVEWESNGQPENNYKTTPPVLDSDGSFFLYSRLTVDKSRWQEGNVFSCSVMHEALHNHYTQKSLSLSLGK
light: B1 light
Consider B3, for which the Kd with human FcRn is 2550 nM; in the test with CD64 [5] it was 2790 nM; in test [2], 8.58 nM. The binding result with C1q [3] was “no binding”.

B4: Ab#L (antibody, human IgG1, kappa, L234A L235A)
heavy: not shown
light: B1 light
notes: also called 20170908-Ab #L-02
With B4, the Kd in the test with human FcRn was determined as 2600 nM; in test [2], 10.1 nM; with CD64 [6] it was 1620 nM.

B5: Ab#T (antibody, human IgG4 S228P, kappa, F234A L235A)
heavy: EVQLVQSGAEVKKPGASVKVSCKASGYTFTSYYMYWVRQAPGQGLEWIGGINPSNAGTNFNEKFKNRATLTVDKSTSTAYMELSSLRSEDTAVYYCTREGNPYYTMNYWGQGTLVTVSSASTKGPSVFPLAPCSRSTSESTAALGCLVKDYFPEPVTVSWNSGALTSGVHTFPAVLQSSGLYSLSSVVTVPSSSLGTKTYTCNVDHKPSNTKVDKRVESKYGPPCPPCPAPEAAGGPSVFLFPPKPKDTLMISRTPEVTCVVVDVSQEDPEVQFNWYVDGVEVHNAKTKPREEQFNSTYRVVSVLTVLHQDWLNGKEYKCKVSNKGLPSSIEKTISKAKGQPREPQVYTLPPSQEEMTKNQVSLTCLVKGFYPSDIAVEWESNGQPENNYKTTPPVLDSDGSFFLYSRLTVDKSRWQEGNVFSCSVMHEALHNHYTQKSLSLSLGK
light: B1 light
notes: also called 20170920-Ab #T-02
Consider B5, for which the dissociation constant (Kd) in the test with human FcRn amounted to 2560 nM; with CD64 [5] it was 3050 nM; in test [2], 0.582 nM. In the test with C1q [3], the binding result is given as “no binding”.
